Among the data in patent US20120045393A1 (priority 2009, published 2012) are EC50 and times lower binding than BRU-2443 values, retold here.

For orientation: EC50 means the concentration that produces a half-maximal response. A higher EC50 goes with weaker potency.

Experiment [1] deals with LHRH binding sites on human ovarian cancer cells (EFO-27).
Experiment [2] concerns the target LHRH binding sites on EFO-27 human ovarian cancer cells (human). Description: competition with [125I-Tyr8]BRU-2477 on EFO-27 cells.

Where two headings read alike, the source gives them in different places. Non-standard residues stand in square brackets, D forms with d. Residues, ends and D or L forms follow the SMILES beside them. Primed or numbered codes have the meaning given here. *: point of attachment. DO3A10CM(3) = metal chelator group attached at the N-terminus (X in table rows); DOTA = O=C(O)CN1CCN(CC(=O)O)CCN(CC(=O)*)CCN(CC(=O)O)CC1; Bpa = N[C@@H](Cc1ccc(C(=O)c2ccccc2)cc1)C(=O)O; d2Nal = N[C@H](Cc1ccc2ccccc2c1)C(=O)O; d3Pal = N[C@H](Cc1cccnc1)C(=O)O; DO3A10CM = not defined here; Nicotinoyl = O=C(c1cccnc1)*; azaGly = NNC(=O)O; Sar = CNCC(=O)O

Consider `CN(CC(=O)N[C@@H](Cc1c[nH]cn1)C(=O)N[C@@H](Cc1c[nH]c2ccccc12)C(=O)N[C@@H](CO)C(=O)N[C@@H](Cc1c[nH]cn1)C(=O)N[C@H](CCCNC(=N)N)C(=O)N[C@@H](Cc1c[nH]c2ccccc12)C(=O)N[C@@H](Cc1c[nH]cn1)C(=O)N1CCC[C@H]1C(=O)NNC(N)=O)C(=O)CN1CCN(CC(=O)O)CCN(CC(=O)O)CCN(CC(=O)O)CC1` [BRU-2763] (HELM PEPTIDE1{[O=C(O)CN1CCN(CC(=O)O)CCN(CC(=O)[*:2])CCN(CC(=O)O)CC1].[Sar].H.W.S.H.[dR].W.H.P.[O=C(NN[*:1])[*:2]].[am]}$$$$V2.0), for which a half-maximal effect in experiment [1] (EC50) was put at 13600 nM.

`CN(CC(=O)N[C@@H](Cc1c[nH]cn1)C(=O)N[C@@H](Cc1c[nH]c2ccccc12)C(=O)N[C@@H](CO)C(=O)N[C@@H](Cc1c[nH]cn1)C(=O)N[C@H](CCCNC(=N)N)C(=O)N[C@@H](Cc1c[nH]c2ccccc12)C(=O)N[C@H](C(=O)N1CCC[C@H]1C(=O)NNC(N)=O)C(c1ccccc1)c1ccccc1)C(=O)CN1CCN(CC(=O)O)CCN(CC(=O)O)CCN(CC(=O)O)CC1` [BRU-2721] returned an EC50 in experiment [1] of 4550 nM.

In experiment [1], `CNCC(=O)N[C@@H](CCCNC(=N)N)C(=O)N[C@@H](Cc1c[nH]c2ccccc12)C(=O)N[C@@H](CO)C(=O)N[C@@H](Cc1c[nH]cn1)C(=O)N[C@H](CCCNC(=N)N)C(=O)N[C@@H](Cc1c[nH]c2ccccc12)C(=O)N[C@@H](Cc1ccc(C(=O)c2ccccc2)cc1)C(=O)N1CCC[C@H]1C(=O)NCCOCCNC(=O)CN1CCN(CC(=O)O)CCN(CC(=O)O)CCN(CC(=O)O)CC1` [compound 3039] showed an EC50 of 280 ± 30 nM.

Molecule `CN(CC(=O)N[C@@H](Cc1c[nH]cn1)C(=O)N[C@@H](Cc1c[nH]c2ccccc12)C(=O)N[C@@H](CO)C(=O)N[C@@H](Cc1c[nH]cn1)C(=O)N[C@H](Cc1c[nH]c2ccccc12)C(=O)N[C@@H](Cc1c[nH]c2ccccc12)C(=O)N[C@@H](Cc1ccc(C(=O)c2ccccc2)cc1)C(=O)N1CCC[C@H]1C(=O)NNC(N)=O)C(=O)CN1CCN(CC(=O)O)CCN(CC(=O)O)CCN(CC(=O)O)CC1` [compound 2731] ({DOTA}-[Sar]HWSH[dW]W[Bpa]P[azaGly]-NH2) returned an EC50 in experiment [1] (EFO-27 cells, competition with [125I-Tyr8]BRU-2477, 90 min) of 1360 nM.

`N=C(N)NCCC[C@H](NC(=O)[C@@H](Cc1ccc2ccccc2c1)NC(=O)CN1CCN(CC(=O)O)CCN(CC(=O)O)CCN(CC(=O)O)CC1)C(=O)N[C@@H](Cc1c[nH]c2ccccc12)C(=O)N[C@@H](CO)C(=O)N[C@@H](Cc1c[nH]cn1)C(=O)N[C@H](CCCNC(=N)N)C(=O)N[C@@H](Cc1c[nH]c2ccccc12)C(=O)N[C@@H](Cc1ccc(C(=O)c2ccccc2)cc1)C(=O)N1CCC[C@H]1C(=O)NCCO` [compound 2970] gave an EC50 in experiment [1] of 510 nM.

In turn, `N=C(N)NCCC[C@H](NC(=O)[C@H](N)Cc1ccc2ccccc2c1)C(=O)N[C@@H](Cc1c[nH]c2ccccc12)C(=O)N[C@@H](CO)C(=O)N[C@@H](Cc1c[nH]cn1)C(=O)N[C@H](CCCNC(=N)N)C(=O)N[C@@H](Cc1c[nH]c2ccccc12)C(=O)N[C@@H](Cc1ccc(C(=O)c2ccccc2)cc1)C(=O)N1CCC[C@H]1C(=O)NCCCCNC(=O)CN1CCN(CC(=O)O)CCN(CC(=O)O)CCN(CC(=O)O)CC1` [compound 3042] came in with an EC50 in experiment [1] of 200 nM.

Molecule `CNCC(=O)N[C@@H](CCCNC(=N)N)C(=O)N[C@@H](Cc1c[nH]c2ccccc12)C(=O)N[C@@H](CO)C(=O)N[C@@H](Cc1c[nH]cn1)C(=O)N[C@H](CCCNC(=N)N)C(=O)N[C@@H](Cc1c[nH]c2ccccc12)C(=O)N[C@@H](Cc1ccc(C(=O)c2ccccc2)cc1)C(=O)N1CCC[C@H]1C(=O)NCCCN1CCN(CCCNC(=O)CN2CCN(CC(=O)O)CCN(CC(=O)O)CCN(CC(=O)O)CC2)CC1` [compound 3044] showed an EC50 in experiment [1] of 240 ± 80 nM.

Regarding `N=C(N)NCCC[C@H](NC(=O)[C@H](N)Cc1ccc2ccccc2c1)C(=O)N[C@@H](Cc1c[nH]c2ccccc12)C(=O)N[C@@H](CO)C(=O)N[C@@H](Cc1c[nH]cn1)C(=O)N[C@H](CCCNC(=N)N)C(=O)N[C@@H](Cc1c[nH]c2ccccc12)C(=O)N[C@@H](Cc1ccc(C(=O)c2ccccc2)cc1)C(=O)N1CCC[C@H]1C(=O)NCCOCCNC(=O)CN1CCN(CC(=O)O)CCN(CC(=O)O)CCN(CC(=O)O)CC1` [BRU-2991], the EC50 in experiment [1] was not above 200 nM.

The molecule `N=C(N)NCCC[C@H](NC(=O)[C@@H](Cc1ccc2ccccc2c1)NC(=O)CN1CCN(CC(=O)O)CCN(CC(=O)O)CCN(CC(=O)O)CC1)C(=O)N[C@@H](Cc1c[nH]c2ccccc12)C(=O)N[C@@H](CO)C(=O)N[C@@H](Cc1c[nH]cn1)C(=O)N[C@H](CCCNC(=N)N)C(=O)N[C@@H](Cc1c[nH]c2ccccc12)C(=O)N[C@@H](Cc1ccc(C(=O)c2ccccc2)cc1)C(=O)N1CCC[C@H]1C(=O)NC(=N)N` [compound 2984] came in with an EC50 in experiment [1] of 400 nM.

As to `CN(CC(=O)N[C@@H](Cc1c[nH]cn1)C(=O)N[C@@H](Cc1c[nH]c2ccccc12)C(=O)N[C@@H](CO)C(=O)N[C@@H](Cc1c[nH]cn1)C(=O)N[C@H](CCCCNC(=O)c1cccnc1)C(=O)N[C@@H](Cc1c[nH]c2ccccc12)C(=O)N[C@@H](Cc1ccc(O)cc1)C(=O)N1CCC[C@H]1C(=O)NNC(N)=O)C(=O)CN1CCN(CC(=O)O)CCN(CC(=O)O)CCN(CC(=O)O)CC1` [compound 2674] ({DOTA}-[Sar]HWSH[dK](Nicotinoyl)WYP[azaGly]-NH2), in experiment [1], a half-maximal effect (EC50) was put at 22600 nM.

In turn, `CNCC(=O)N[C@@H](CCCNC(=N)N)C(=O)N[C@@H](Cc1c[nH]c2ccccc12)C(=O)N[C@@H](CO)C(=O)N[C@@H](Cc1c[nH]cn1)C(=O)N[C@H](CCCNC(=N)N)C(=O)N[C@@H](Cc1c[nH]c2ccccc12)C(=O)N[C@@H](Cc1ccc(C(=O)c2ccccc2)cc1)C(=O)N1CCC[C@H]1C(=O)NCCCCNC(=O)CN1CCN(CC(=O)O)CCN(CC(=O)O)CCN(CC(=O)O)CC1` [BRU-3041] returned an EC50 in experiment [1] of 230 to 500 nM.

Consider `N=C(N)NCCC[C@H](NC(=O)[C@@H](Cc1ccc2ccccc2c1)NC(=O)CN1CCN(CC(=O)O)CCN(CC(=O)O)CCN(CC(=O)O)CC1)C(=O)N[C@@H](Cc1c[nH]c2ccccc12)C(=O)N[C@@H](Cc1ccncc1)C(=O)N[C@@H](Cc1c[nH]cn1)C(=O)N[C@H](CCCNC(=N)N)C(=O)N[C@@H](Cc1c[nH]c2ccccc12)C(=O)N[C@@H](Cc1ccc(C(=O)c2ccccc2)cc1)C(=O)N1CCC[C@H]1C(=O)NNC(N)=O` [compound 2957], for which, in experiment [1], a half-maximal response (EC50) required 840 nM.

`N=C(N)NCCC[C@H](NC(=O)[C@@H](Cc1ccc2ccccc2c1)NC(=O)CN1CCN(CC(=O)O)CCN(CC(=O)O)CCN(CC(=O)O)CC1)C(=O)N[C@@H](Cc1c[nH]c2ccccc12)C(=O)N[C@@H](CO)C(=O)N[C@@H](Cc1c[nH]cn1)C(=O)N[C@H](CCCNC(=N)N)C(=O)N[C@@H](Cc1c[nH]c2ccccc12)C(=O)N[C@@H](Cc1ccc(C(=O)c2ccccc2)cc1)C(=O)N1C[C@H](O)C[C@H]1C(=O)NNC(N)=O` [compound 2952] displayed an EC50 in experiment [1] of 280 nM.

B1: BRU-2970 (peptide)
peptide: XRWSHXWXP
modifications: DO3A10CM on N-terminus; AA1 Dnal2; AA6 Darg; AA8 Bpa4; AA10 Aeh2 (aminoethanol; printed Ach2 in paragraph 138)
Take B1: the EC50 in experiment [2] came out at 510 nM.

B2: BRU-2989 (peptide)
peptide: XRWSHXWXPG
modifications: DO3A10CM on N-terminus; AA1 Dnal2; AA6 Darg; AA8 Bpa4; C-terminal Gly-Az23(py2)2po-Ap
Take B2: the EC50 in experiment [2] stood at 1130 nM.

In experiment [2], XHWSHXWXPX (DO3A10CM on N-terminus; AA1 Sar; AA6 Darg; AA8 Bip; AA10 azaGly-NH2) [BRU-2625] yielded an EC50 of 2140 nM.

As to {DO3A10CM(3)}-[Sar]HWSH[dA]W[Bpa]P[azaGly]-NH2 [BRU-2672], the EC50 in experiment [2] was 14000 nM.

In experiment [2], {DO3A10CM(3)}-[Sar]HWSH[dK](Nicotinoyl)W[Bpa]P[azaGly]-NH2 [BRU-2671] registered an EC50 of 7200 nM.

B3: BRU-2437 (peptide)
peptide: XHWSHXWYPX
HELM: PEPTIDE1{[Glp].H.W.S.H.[dK].W.Y.P.[O=C(NN[*:1])[*:2]].[am]}$$$$V2.0
SMILES: NCCCC[C@@H](NC(=O)[C@H](Cc1c[nH]cn1)NC(=O)[C@H](CO)NC(=O)[C@H](Cc1c[nH]c2ccccc12)NC(=O)[C@H](Cc1c[nH]cn1)NC(=O)[C@@H]1CCC(=O)N1)C(=O)N[C@@H](Cc1c[nH]c2ccccc12)C(=O)N[C@@H](Cc1ccc(O)cc1)C(=O)N1CCC[C@H]1C(=O)NNC(N)=O
Molecule B3 displayed an EC50 in experiment [2] of 8540 nM.

Molecule DO3A10CM-[Sar]HWSH[dW]W[Bpa]P[azaGly]-NH2 (reading uncertain) [BRU-2731] registered an EC50 in experiment [2] of 1360 nM.

With {DO3A10CM(3)}-[Sar]HWSH[dK](Nicotinoyl)WYP[azaGly]-NH2 [BRU-2674], the EC50 in experiment [2] came out at 22600 nM.

Take XHWSHXWXPX (DO3A10CM on N-terminus; AA1 Sar; AA6 Darg; AA8 Tbufe4; AA10 azaGly-NH2) [BRU-2634]: the EC50 in experiment [2] came out at 980 nM.

In experiment [2], {DO3A10CM(3)}-[Sar]HWSH[d3Pal]W[Bpa]P[azaGly]-NH2 [BRU-2673] had an EC50 of 12300 nM.

In the case of DO3A10CM-[d2Nal]RWSH[dR]W[Bpa]PGF-NH2 (reading uncertain) [BRU-2980], in experiment [2], the EC50 came to 970 nM.

B4: BRU-3019 (peptide)
peptide: XRWSHXWXP
modifications: not fully specified; DO3A10CM on N-terminus; AA1 Dnal2 (Table 6; Sar in paragraph 138); AA6 Darg; AA8 Bpa4; AA10 Az23po-Dabt14
In experiment [2], B4 registered an EC50 of 900 nM.

B5: BRU-3022 (peptide)
peptide: XRWSHXWXP
modifications: not fully specified; DO3A10CM on N-terminus; AA1 Dnal2 (Table 6; Sar in paragraph 138); AA6 Darg; AA8 Bpa4; AA10 Az23po-Da15o3pt
B5 registered an EC50 in experiment [2] of 710 nM.

In experiment [2], XRWSHXWXP (DO3A10CM on N-terminus; AA1 Dnal2; AA6 Darg; AA8 Bpa4; AA10 Aprp1h3) [BRU-2982] had an EC50 of 1130 nM.

In experiment [2], XHWSHXWXPX (DO3A10CM on N-terminus; AA1 Sar; AA6 Dcit; AA8 Bpa4; AA10 azaGly-NH2) [BRU-2729] registered an EC50 of 14200 nM and a times lower binding than BRU-2443 of 15 times.

The molecule XRWSHXWXPGX (DO3A10CM on N-terminus; AA1 Dnal2; AA6 Darg; AA8 Bpa4; AA10 Gly-NH2 (amide)) [BRU-3005] came in with an EC50 in experiment [2] of 660 nM.

In the case of XRWSHXWXP (DO3A10CM on N-terminus; AA1 Dnal2; AA6 Darg; AA8 Bpa4; AA10 Ae (aminoethane)) [BRU-2981], in experiment [2], the EC50 was 970 nM.

Take XRWSHXWXPG (DO3A10CM on N-terminus; AA1 Dnal2; AA6 Darg; AA8 Bpa4; C-terminal Gly-Aprp1h3) [BRU-2987]: the EC50 in experiment [2] was 2300 nM.
